Results taken from article PMC10686989, “Distinct activation mechanisms of β-arrestin-1 revealed by ^19F NMR spectroscopy” (Nature Communications, 2023).

Target: cysteine-less β-arrestin-1 D390C, 19F-labelled with wPSP-6F (human) (UniProt P49407)
Experiment: NMR titration; 19F NMR of wPSP-6F-labelled βarr1 (D390C site) titrated with phosphopeptide; 298 K, 20 mM Tris-HCl, 150 mM NaCl, pH 8.0; Kd estimated

cysteine-less β-arrestin-1 D390C, 19F-labelled with wPSP-6F (human), sequence (P49407 whole entry C59V/C125S/C140L/C150V/C242V/C251V/C269S/D390C): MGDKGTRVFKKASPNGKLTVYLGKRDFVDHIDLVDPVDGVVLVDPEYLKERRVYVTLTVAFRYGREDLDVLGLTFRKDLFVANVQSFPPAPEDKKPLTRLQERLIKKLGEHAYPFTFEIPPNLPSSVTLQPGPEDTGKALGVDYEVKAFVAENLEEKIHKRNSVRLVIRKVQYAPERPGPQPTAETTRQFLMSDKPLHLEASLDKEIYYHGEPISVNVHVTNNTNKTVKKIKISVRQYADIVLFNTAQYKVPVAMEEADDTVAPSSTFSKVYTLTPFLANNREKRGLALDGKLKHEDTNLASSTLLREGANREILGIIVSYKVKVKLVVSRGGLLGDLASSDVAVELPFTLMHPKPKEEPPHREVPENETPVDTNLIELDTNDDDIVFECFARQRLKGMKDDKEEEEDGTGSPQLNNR

Substance: V2Rpp, phosphopeptide derived from the vasopressin V2 receptor (V2R)
- Kd: 1300 nM
